Experimental data published in publication PMC7497679, “Structure-based design, synthesis, and evaluation of the biological activity of novel phosphoroorganic small molecule IAP antagonists” (Investigational New Drugs, 2020).

Molecular target: X-linked inhibitor of apoptosis protein (XIAP) BIR3 domain (human)
Test: fluorescence polarisation; competition: XIAP BIR3 (50 nM) added to the competitor (50 µM to 0.640 nM or to 0.0537 nM), 15 min at r.t., then probe 4 (2 nM), read 30 min later; phosphate buffer pH 7.5 with γ-globulin 100 µg/mL and NaN3 0.02%, final DMSO 1.4%

B1: tetrapeptide H2N-Ala-Val-Pro-Trp-OH (3) (peptide)
peptide: H-AVPW-OH
**Q.** How did the EC50 turn out when B1 was run?
**A.** The EC50 was 340 nM.
